Ends that are not written are not given here.
Molecular target: T1, purified FADD protein (human, UniProt Q13158 1-208, limits assumed)
T1 sequence: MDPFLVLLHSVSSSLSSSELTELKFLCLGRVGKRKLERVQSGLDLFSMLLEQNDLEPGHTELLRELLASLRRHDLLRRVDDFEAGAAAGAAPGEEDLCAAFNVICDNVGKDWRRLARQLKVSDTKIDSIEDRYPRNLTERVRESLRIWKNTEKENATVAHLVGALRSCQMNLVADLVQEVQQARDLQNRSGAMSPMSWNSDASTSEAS
Experiment: GST pull-down of purified FADD, anti-FADD immunoblot
Description: In vitro binding assays. Purified GST, GST-MUC1-CD(1-72), GST-MUC1-CD deletion mutants, GST-caspase-8, GST-caspase-8 deletion mutants, GST-FADD, GST-N-FADD and GST-C-FADD protein (36) were purified from E. coli (BL21 DE3) and immobilized on glutathione-agarose beads (Pierce). His-MUC1-CD(1-72) and His-caspase-8 deletion mutant proteins were purified on Ni-NTA beads (Qiagen, Valencia, Calif.). GST and GST fusion proteins bound to glutathione beads were incubated with purified soluble proteins for 2 hours at 4° C., and washed. Adsorbates bound to the beads were analyzed by solubilizing the protein/bead mixture in Laemli buffer following by sodium dodecyl sulfate polyacrylamide gel electrophoresis (SDS-PAGE) and immunoblotting. For competition studies, GST-caspase-8 DED protein bound to FADD was incubated with increasing amounts of MUC1-CD protein. Precipitated proteins were subjected to SDS-PAGE and immunoblot analysis. In certain studies, binding was performed in the presence of a synthetic peptide ([…]) (SEQ ID NO:3) derived from amino acids 1-20 from MUC1-CD (Molecular Biology Core Facility, Dana-Farber Cancer Institute).

B1: GST-MUC1-CD(1-45) (other)
chain: {GST}-CQCRRKNYGQLDIFPARDTYHPMSEYPTYHTHGRYVPPSSTDRSP
modifications: cysteine pairing not given here; also: linker to GST not given here
notes: also called GST-MUC1-CD deletion mutant; not shown: GST fusion partner at the N end, and any linker to it
**Q.** Does B1 bind?
**A.** no binding
